The record followed here is publication PMC7360973.

As a reminder, the stoichiometry N is the number of molecules, sites or subunits per partner or assembly.

What all share (settings): remark: other sources report otherwise
The target of assay [1] is T1, Human heat shock transcription factor 1 (Hsf1), wild type (human), Q00613.
T1 chain: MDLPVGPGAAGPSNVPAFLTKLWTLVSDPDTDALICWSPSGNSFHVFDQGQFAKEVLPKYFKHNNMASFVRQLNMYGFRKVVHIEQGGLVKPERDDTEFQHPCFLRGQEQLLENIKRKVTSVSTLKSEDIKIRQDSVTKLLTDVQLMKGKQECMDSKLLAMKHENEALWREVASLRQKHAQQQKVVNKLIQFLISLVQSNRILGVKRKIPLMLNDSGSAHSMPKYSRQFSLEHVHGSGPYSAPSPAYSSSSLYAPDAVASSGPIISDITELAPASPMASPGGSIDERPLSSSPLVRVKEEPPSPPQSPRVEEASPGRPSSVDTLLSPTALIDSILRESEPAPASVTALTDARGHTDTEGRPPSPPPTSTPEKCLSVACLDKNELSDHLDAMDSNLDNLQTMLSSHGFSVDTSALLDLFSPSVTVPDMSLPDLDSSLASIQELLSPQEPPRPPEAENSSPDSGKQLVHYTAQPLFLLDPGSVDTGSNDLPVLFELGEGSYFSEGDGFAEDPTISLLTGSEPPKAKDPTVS
As to the kind of experiment: SEC + native gel or EMSA; trimer-to-monomer ratio of freshly purified Hsf1 in the absence of heat shock, by gel filtration (Superdex 200) and BN-PAGE.

The target in assay [2] is T1, Human heat shock transcription factor 1 …. As to the kind of experiment: native gel or EMSA; blue-native PAGE (8% gel, on ice) of purified Hsf1 wild type or variants, also after 10 min at 4–42°C (5 μM protein); Coomassie stain or immunoblot with Hsf1 antiserum. On the technique in general: A gel shift assay detects complexes by their altered migration in electrophoresis.

The target in assay [3] is T2, Hsf1 wild type expressed from pIRES‐HSF1_hrGFP in cells (human), Q00613.
T2 chain: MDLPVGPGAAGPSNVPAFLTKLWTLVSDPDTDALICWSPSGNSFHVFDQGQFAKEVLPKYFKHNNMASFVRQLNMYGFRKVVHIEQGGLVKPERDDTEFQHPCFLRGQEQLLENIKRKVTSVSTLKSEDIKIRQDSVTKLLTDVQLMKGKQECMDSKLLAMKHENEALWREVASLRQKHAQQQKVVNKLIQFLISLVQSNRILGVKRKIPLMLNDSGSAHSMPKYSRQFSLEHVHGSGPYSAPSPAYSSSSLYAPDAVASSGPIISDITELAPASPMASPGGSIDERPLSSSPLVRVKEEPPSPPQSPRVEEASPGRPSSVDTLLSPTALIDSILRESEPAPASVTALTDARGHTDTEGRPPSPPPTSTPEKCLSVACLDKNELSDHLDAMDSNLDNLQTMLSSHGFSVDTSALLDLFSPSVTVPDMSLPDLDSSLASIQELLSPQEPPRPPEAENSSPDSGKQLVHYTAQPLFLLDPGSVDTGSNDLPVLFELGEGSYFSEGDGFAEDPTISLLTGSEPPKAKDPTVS
The experiment in a line: native gel or EMSA; blue-native PAGE of lysates (15 μg total protein) of transfected HSF1−/− MEFs, immunoblot with Hsf1 antiserum.

B1: Human heat shock transcription factor 1 (Hsf1), wild type, Q00613 1-529 (natural protein)
chain: MDLPVGPGAAGPSNVPAFLTKLWTLVSDPDTDALICWSPSGNSFHVFDQGQFAKEVLPKYFKHNNMASFVRQLNMYGFRKVVHIEQGGLVKPERDDTEFQHPCFLRGQEQLLENIKRKVTSVSTLKSEDIKIRQDSVTKLLTDVQLMKGKQECMDSKLLAMKHENEALWREVASLRQKHAQQQKVVNKLIQFLISLVQSNRILGVKRKIPLMLNDSGSAHSMPKYSRQFSLEHVHGSGPYSAPSPAYSSSSLYAPDAVASSGPIISDITELAPASPMASPGGSIDERPLSSSPLVRVKEEPPSPPQSPRVEEASPGRPSSVDTLLSPTALIDSILRESEPAPASVTALTDARGHTDTEGRPPSPPPTSTPEKCLSVACLDKNELSDHLDAMDSNLDNLQTMLSSHGFSVDTSALLDLFSPSVTVPDMSLPDLDSSLASIQELLSPQEPPRPPEAENSSPDSGKQLVHYTAQPLFLLDPGSVDTGSNDLPVLFELGEGSYFSEGDGFAEDPTISLLTGSEPPKAKDPTVS
On to B1, for which the stoichiometry N in assay [1] and in assay [2] was 3 in each case.

B2: Hsf1 wild type expressed from pIRES‐HSF1_hrGFP in cells, Q00613 1-529 (natural protein)
chain: MDLPVGPGAAGPSNVPAFLTKLWTLVSDPDTDALICWSPSGNSFHVFDQGQFAKEVLPKYFKHNNMASFVRQLNMYGFRKVVHIEQGGLVKPERDDTEFQHPCFLRGQEQLLENIKRKVTSVSTLKSEDIKIRQDSVTKLLTDVQLMKGKQECMDSKLLAMKHENEALWREVASLRQKHAQQQKVVNKLIQFLISLVQSNRILGVKRKIPLMLNDSGSAHSMPKYSRQFSLEHVHGSGPYSAPSPAYSSSSLYAPDAVASSGPIISDITELAPASPMASPGGSIDERPLSSSPLVRVKEEPPSPPQSPRVEEASPGRPSSVDTLLSPTALIDSILRESEPAPASVTALTDARGHTDTEGRPPSPPPTSTPEKCLSVACLDKNELSDHLDAMDSNLDNLQTMLSSHGFSVDTSALLDLFSPSVTVPDMSLPDLDSSLASIQELLSPQEPPRPPEAENSSPDSGKQLVHYTAQPLFLLDPGSVDTGSNDLPVLFELGEGSYFSEGDGFAEDPTISLLTGSEPPKAKDPTVS
B2 displayed a stoichiometry N in assay [3] of 3.
